{"source": "paper PMC6800183", "about": "(Journal of biological inorganic chemistry : JBIC : a …, 2019)", "molecules": {"B1": {"name": "Bol2 (natural protein, S. cerevisiae, UniProt P53082 1-120, looked up)", "chain": "MTGERIEKVKINDEFAKSHFLTTQWRETKRQRHYKMPVTEQGLRERIESAIPQVYHIIVTDLSYGCGQSFDIVVVSDFFQGKSKLMRSRAVNKAVKEELQEIHAFSCKCYTEEEWSKIVV"}, "B2": {"name": "Aft2(1–204) C187A (domain or fragment, S. cerevisiae, UniProt Q08957 1-204, looked up)", "chain": "MKAKSMKSIISVPISVSKTGKMKLTASPDNLASMMSKDQNKLIHLDPVPSFEDRHEIKPWLQKIFYPQGIDIVIERSDSSKVTFKCRSVRSKVGLNPKSKGSSSRSHACPFRIRAAYSVRLQKWNVVVMNNIHSHELRFDLITKTDDYKKFKENLRQKNDEKAIKTFDELEYKASLNLPLVTPIISADCGLTKEIEAFNNIFLP"}, "B3": {"name": "Aft2(1–204) C189A (domain or fragment, S. cerevisiae, UniProt Q08957 1-204, looked up)", "chain": "B2 chain with A187C, C189A"}}, "key": {"[1]": {"target": "T1, [2Fe-2S]-Grx3-Bol2 heterodimer (Saccharomyces cerevisiae, UniProt P53082+Q03835)", "T1 sequence (Q03835 1-250)": "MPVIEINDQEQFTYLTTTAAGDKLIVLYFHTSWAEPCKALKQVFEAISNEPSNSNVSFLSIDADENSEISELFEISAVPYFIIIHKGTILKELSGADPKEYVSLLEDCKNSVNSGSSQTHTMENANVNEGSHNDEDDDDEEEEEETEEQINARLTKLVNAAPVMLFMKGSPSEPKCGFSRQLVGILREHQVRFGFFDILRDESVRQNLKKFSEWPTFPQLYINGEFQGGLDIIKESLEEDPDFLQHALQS", "T1 sequence (P53082 1-120)": "B1 chain", "assay": "Bradford, iron and acid-labile sulfide analysis", "type": "binding", "settings": "cluster bridges Grx3 and Bol2; pH 8.0, 1 mM GSH, anaerobic"}, "Grx3": {"target": "T2, Grx3 (S. cerevisiae, UniProt Q03835 1-250)", "T2 sequence (looked up)": "T1 sequence (Q03835 1-250)", "assay": "SEC"}, "[2]": {"target": "T3, [2Fe-2S]-Grx3-Bol2 heterodimer (S. cerevisiae, UniProt Q03835 1-250; P53082 1-120)", "T3 sequence (looked up) 1": "T1 sequence (Q03835 1-250)", "T3 sequence (looked up) 2": "B1 chain", "assay": "heparin chromatography co-elution"}}, "note": "Positions count from the first letter of the chain named. Names may count otherwise."}
{"molecule": "[2Fe-2S] cluster", "values": [{"measurement": "[2Fe-2S] cluster per heterodimer", "setting": "[1]", "result": "0.9–1.05 per heterodimer"}]}
{"molecule": "B1", "values": [{"measurement": "binding result", "setting": "Grx3", "result": "binds"}]}
{"molecule": "B2", "values": [{"measurement": "binding result", "setting": "[2]", "result": "binds"}]}
{"molecule": "B3", "values": [{"measurement": "binding result", "setting": "[2]", "result": "binds"}]}
